Test results taken from the supplement of paper PMC9876800.

Tested on: peptide library, one residue held at a place counted from the S/T acceptor
Assay: relative phosphorylation of the sub-library (ratio to the mean residue at this position); human; higher = residue favoured
Summary of the method: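 Purified recombinant kinases (human or orthologue constructs) were incubated in 384-well plates with biotinylated degenerate peptide sub-libraries, each fixing one residue at one position around a central Ser/Thr. Peptides were at 50 μM, with 50 μM ATP spiked with γ-32P-ATP, for 90 min under kinase-specific conditions. Spots on streptavidin membranes were phosphorimaged and quantified by densitometry. Relative sub-library phosphorylation is a ratio to the mean residue at that position.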

Sequence of GRK7, construct: Full length (Q8WTQ7 whole entry, looked up): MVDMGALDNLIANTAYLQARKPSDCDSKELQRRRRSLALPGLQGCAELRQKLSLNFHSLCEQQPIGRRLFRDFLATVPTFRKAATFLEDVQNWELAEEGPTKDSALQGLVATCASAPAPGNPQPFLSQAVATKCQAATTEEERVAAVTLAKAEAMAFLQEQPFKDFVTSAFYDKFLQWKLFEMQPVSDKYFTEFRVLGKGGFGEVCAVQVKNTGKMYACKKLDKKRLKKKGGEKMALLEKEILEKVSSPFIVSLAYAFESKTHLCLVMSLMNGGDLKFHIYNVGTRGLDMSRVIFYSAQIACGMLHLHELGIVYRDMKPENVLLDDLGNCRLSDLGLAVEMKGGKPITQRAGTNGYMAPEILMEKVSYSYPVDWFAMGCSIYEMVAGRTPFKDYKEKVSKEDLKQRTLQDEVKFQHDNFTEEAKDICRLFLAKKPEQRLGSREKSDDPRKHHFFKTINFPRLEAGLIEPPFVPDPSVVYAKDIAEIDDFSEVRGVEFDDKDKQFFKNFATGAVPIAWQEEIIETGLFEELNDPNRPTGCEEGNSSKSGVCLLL

## GRK7, construct: Full length (from UniProt Q8WTQ7)
A fixed, at +1
  relative phosphorylation: 0.839
A fixed, at +2
  relative phosphorylation: 1.23
A fixed, at +3
  relative phosphorylation: 0.77
A fixed, at +4
  relative phosphorylation: 1.09
A fixed, at -1
  relative phosphorylation: 0.809
A fixed, at -2
  relative phosphorylation: 0.805
A fixed, at -3
  relative phosphorylation: 0.636
A fixed, at -4
  relative phosphorylation: 0.878
A fixed, at -5
  relative phosphorylation: 0.87
D fixed, at +1
  relative phosphorylation: 0.701
D fixed, at +2
  relative phosphorylation: 0.93
D fixed, at +3
  relative phosphorylation: 1.85
D fixed, at +4
  relative phosphorylation: 1.55
D fixed, at -1
  relative phosphorylation: 1.57
D fixed, at -2
  relative phosphorylation: 3.03
D fixed, at -3
  relative phosphorylation: 2.12
D fixed, at -4
  relative phosphorylation: 2.48
D fixed, at -5
  relative phosphorylation: 2.26
E fixed, at +1
  relative phosphorylation: 2.1
E fixed, at +2
  relative phosphorylation: 0.894
E fixed, at +3
  relative phosphorylation: 4.35
E fixed, at +4
  relative phosphorylation: 1.69
E fixed, at -1
  relative phosphorylation: 1.31
E fixed, at -2
  relative phosphorylation: 2.43
E fixed, at -3
  relative phosphorylation: 1.75
E fixed, at -4
  relative phosphorylation: 1.9
E fixed, at -5
  relative phosphorylation: 2.03
F fixed, at +1
  relative phosphorylation: 1.46
F fixed, at +2
  relative phosphorylation: 0.843
F fixed, at +3
  relative phosphorylation: 0.513
F fixed, at +4
  relative phosphorylation: 0.682
F fixed, at -1
  relative phosphorylation: 0.512
F fixed, at -2
  relative phosphorylation: 0.624
F fixed, at -3
  relative phosphorylation: 0.474
F fixed, at -4
  relative phosphorylation: 0.516
F fixed, at -5
  relative phosphorylation: 0.621
G fixed, at +1
  relative phosphorylation: 0.823
G fixed, at +2
  relative phosphorylation: 1.15
G fixed, at +3
  relative phosphorylation: 0.924
G fixed, at +4
  relative phosphorylation: 1.1
G fixed, at -1
  relative phosphorylation: 1.7
G fixed, at -2
  relative phosphorylation: 1.13
G fixed, at -3
  relative phosphorylation: 1.24
G fixed, at -4
  relative phosphorylation: 1.04
G fixed, at -5
  relative phosphorylation: 1.34
H fixed, at +1
  relative phosphorylation: 0.927
H fixed, at +2
  relative phosphorylation: 1.21
H fixed, at +3
  relative phosphorylation: 0.851
H fixed, at +4
  relative phosphorylation: 1.08
H fixed, at -1
  relative phosphorylation: 1.1
H fixed, at -2
  relative phosphorylation: 0.573
H fixed, at -3
  relative phosphorylation: 0.673
H fixed, at -4
  relative phosphorylation: 0.699
H fixed, at -5
  relative phosphorylation: 0.883
I fixed, at +1
  relative phosphorylation: 0.765
I fixed, at +2
  relative phosphorylation: 1.11
I fixed, at +3
  relative phosphorylation: 0.372
I fixed, at +4
  relative phosphorylation: 0.799
I fixed, at -1
  relative phosphorylation: 0.495
I fixed, at -2
  relative phosphorylation: 0.533
I fixed, at -3
  relative phosphorylation: 0.499
I fixed, at -4
  relative phosphorylation: 0.553
I fixed, at -5
  relative phosphorylation: 0.729
K fixed, at +1
  relative phosphorylation: 0.58
K fixed, at +2
  relative phosphorylation: 1.02
K fixed, at +3
  relative phosphorylation: 1.54
K fixed, at +4
  relative phosphorylation: 1.05
K fixed, at -1
  relative phosphorylation: 1.47
K fixed, at -2
  relative phosphorylation: 0.693
K fixed, at -3
  relative phosphorylation: 1.44
K fixed, at -4
  relative phosphorylation: 0.738
K fixed, at -5
  relative phosphorylation: 0.838
L fixed, at +1
  relative phosphorylation: 0.907
L fixed, at +2
  relative phosphorylation: 0.921
L fixed, at +3
  relative phosphorylation: 0.581
L fixed, at +4
  relative phosphorylation: 0.818
L fixed, at -1
  relative phosphorylation: 0.621
L fixed, at -2
  relative phosphorylation: 0.548
L fixed, at -3
  relative phosphorylation: 0.534
L fixed, at -4
  relative phosphorylation: 0.54
L fixed, at -5
  relative phosphorylation: 0.589
M fixed, at +1
  relative phosphorylation: 0.899
M fixed, at +2
  relative phosphorylation: 0.689
M fixed, at +3
  relative phosphorylation: 0.401
M fixed, at +4
  relative phosphorylation: 0.658
M fixed, at -1
  relative phosphorylation: 0.53
M fixed, at -2
  relative phosphorylation: 0.572
M fixed, at -3
  relative phosphorylation: 0.493
M fixed, at -4
  relative phosphorylation: 0.58
M fixed, at -5
  relative phosphorylation: 0.678
N fixed, at +1
  relative phosphorylation: 0.704
N fixed, at +2
  relative phosphorylation: 1.15
N fixed, at +3
  relative phosphorylation: 0.604
N fixed, at +4
  relative phosphorylation: 0.726
N fixed, at -1
  relative phosphorylation: 1.66
N fixed, at -2
  relative phosphorylation: 0.956
N fixed, at -3
  relative phosphorylation: 1.16
N fixed, at -4
  relative phosphorylation: 0.872
N fixed, at -5
  relative phosphorylation: 0.96
P fixed, at +1
  relative phosphorylation: 0.826
P fixed, at +2
  relative phosphorylation: 1.2
P fixed, at +3
  relative phosphorylation: 0.999
P fixed, at +4
  relative phosphorylation: 1.43
P fixed, at -1
  relative phosphorylation: 1.26
P fixed, at -2
  relative phosphorylation: 1.71
P fixed, at -3
  relative phosphorylation: 1.89
P fixed, at -4
  relative phosphorylation: 2.61
P fixed, at -5
  relative phosphorylation: 1.16
Q fixed, at +1
  relative phosphorylation: 1.08
Q fixed, at +2
  relative phosphorylation: 0.88
Q fixed, at +3
  relative phosphorylation: 0.896
Q fixed, at +4
  relative phosphorylation: 0.926
Q fixed, at -1
  relative phosphorylation: 1.22
Q fixed, at -2
  relative phosphorylation: 0.687
Q fixed, at -3
  relative phosphorylation: 0.794
Q fixed, at -4
  relative phosphorylation: 0.728
Q fixed, at -5
  relative phosphorylation: 0.73
R fixed, at +1
  relative phosphorylation: 0.56
R fixed, at +2
  relative phosphorylation: 1.02
R fixed, at +3
  relative phosphorylation: 0.848
R fixed, at +4
  relative phosphorylation: 0.792
R fixed, at -1
  relative phosphorylation: 0.891
R fixed, at -2
  relative phosphorylation: 0.762
R fixed, at -3
  relative phosphorylation: 1.58
R fixed, at -4
  relative phosphorylation: 0.798
R fixed, at -5
  relative phosphorylation: 0.955
V fixed, at +1
  relative phosphorylation: 0.654
V fixed, at +2
  relative phosphorylation: 1.07
V fixed, at +3
  relative phosphorylation: 0.415
V fixed, at +4
  relative phosphorylation: 0.894
V fixed, at -1
  relative phosphorylation: 0.629
V fixed, at -2
  relative phosphorylation: 0.589
V fixed, at -3
  relative phosphorylation: 0.544
V fixed, at -4
  relative phosphorylation: 0.754
V fixed, at -5
  relative phosphorylation: 0.751
W fixed, at +1
  relative phosphorylation: 1.93
W fixed, at +2
  relative phosphorylation: 0.822
W fixed, at +3
  relative phosphorylation: 0.572
W fixed, at +4
  relative phosphorylation: 0.758
W fixed, at -1
  relative phosphorylation: 0.513
W fixed, at -2
  relative phosphorylation: 0.614
W fixed, at -3
  relative phosphorylation: 0.554
W fixed, at -4
  relative phosphorylation: 0.702
W fixed, at -5
  relative phosphorylation: 0.858
Y fixed, at +1
  relative phosphorylation: 1.25
Y fixed, at +2
  relative phosphorylation: 0.868
Y fixed, at +3
  relative phosphorylation: 0.515
Y fixed, at +4
  relative phosphorylation: 0.975
Y fixed, at -1
  relative phosphorylation: 0.717
Y fixed, at -2
  relative phosphorylation: 0.737
Y fixed, at -3
  relative phosphorylation: 0.623
Y fixed, at -4
  relative phosphorylation: 0.61
Y fixed, at -5
  relative phosphorylation: 0.753
pThr fixed, at +1
  relative phosphorylation: 2.52
pThr fixed, at +2
  relative phosphorylation: 1.05
pThr fixed, at +3
  relative phosphorylation: 1.66
pThr fixed, at +4
  relative phosphorylation: 3.54
pThr fixed, at -1
  relative phosphorylation: 1.01
pThr fixed, at -2
  relative phosphorylation: 3.79
pThr fixed, at -3
  relative phosphorylation: 2.48
pThr fixed, at -4
  relative phosphorylation: 2.06
pThr fixed, at -5
  relative phosphorylation: 1.5
pTyr fixed, at +1
  relative phosphorylation: 7.56
pTyr fixed, at +2
  relative phosphorylation: 1.29
pTyr fixed, at +3
  relative phosphorylation: 1.41
pTyr fixed, at +4
  relative phosphorylation: 1.9
pTyr fixed, at -1
  relative phosphorylation: 2.83
pTyr fixed, at -2
  relative phosphorylation: 3.58
pTyr fixed, at -3
  relative phosphorylation: 2.14
pTyr fixed, at -4
  relative phosphorylation: 1.9
pTyr fixed, at -5
  relative phosphorylation: 1.67
